The DeepSol protein solubility set

Test: soluble on expression in E. coli; label from the status in PepcDB or PDB records

Row | Sequence | soluble on expression in E. coli
1 | MSLATIYDVAKAAGVSPKTVSRVLNDDAPVNESTRQAVNEAIAALDYLPSQAARMMRSSRSRLIGLITGAISQEIGPAVQSGLPEMNIVQAIQREMSAQGKILMISDTGGRADAAPVLARTFAQHRVEGLIYVADHHREIEMDLTSGNCPVVLVNCYDAAATPCVLPDDEAGEAALVARLIEAGHRRIGFLPPDRTQPAARLRLDGYRTALAAAGLAYDPDLVAHVHDPDADRARALLTEALDALLSLDAPPSVICCTNDEMAMRLYGLLRSRGLRVPDDISVAGYDDHKTISEMLYPQLTTVVLPYSEMGRQAARLMLELIEGKPLASPGPTLVDGPVVWRSSVTEGHHHHHH | soluble
2 | MLALMDADGNIAWSGEYDEWGNQLNEENPHHLHQPYRLPGQQYDKESGLYYNRNRYYDPLQGRYITQDPIGLEGGWSLYAYPLNPVNGIDPLGLSPADVALIRRKDQLNHQRAWDILSDTYEDMKRLNLGGTDQFFHCMAFCRVSKLNDAGVSRSAKGLGYEKEIRDYGLNLFGMYGRKVKLSHSEMIEDNKKDLAVNDHGLTCPSTTDCSDRCSDYINPEHKKTIKALQDAGYLKLEHHHHHH | not soluble
3 | MGSDKIHHHHHHVTEAQTDPKYYDVVEATWPCLRCEKLGDITLRVGAGGGSRVSAATCDALVSDAQIAQAEAAMQDFDQPRLFMIRDGQDALDGQLERLGYAVMDPVALWTVAPSMLTDVEIPRVTTFCLWEPLAIQREIWATGGIGPERLAIMERATRPKTSILGRWDDKPAGAAFVGMHEGIAMLHALEILPHQRRKGMGVWMMRQAAYWAAEQGATELAVLCTRANAGANALYARLGMQQAGGYHYRIKR | not soluble
4 | MGSVEIPTKVLTNTSSQLKMPVVGMGSAPDFTCKKDTKDAIIEAIKQGYRHFDTAAAYGSEQALGEALKEAIELGLVTRDDLFVTSKLWVTENHPHLVIPALQKSLKTLQLDYLDLYLIHWPLSSQPGKFSFPIDVADLLPFDVKGVWESMEESLKLGLTKAIGVSNFSVKKLENLLSVATVLPAVNQVEMNLAWQQKKLREFCNAHGIVLTAFSPVRKGASRGPNEVMENDMLKEIADAHGKSVAQISLRWLYEQGVTFVPKSYDKERMNQNLRIFDWSLTKEDHEKIAQIKQNRLIPGPTKPGLNDLYDD | soluble
5 | MKKINAIILLSSLTSASVFAGAYVENREAYNLASDQGEVMLRVGYNFDMGAGIMLTNTYNFQREDELKHGYNEIEGWYPLFKPTDKLTIQPGGLINDKSIGSGGAVYLDVNYKFVPWFNLTVRNRYNHNNYSSTDLSGELDNNDTYEIGTYWNFKITDKFSYTFEPHYFMRVNDFNSSNGKDHHWEITNTFRYRINEHWLPYFELRWLDRNVEPYHREQNQIRIGTKYFF | soluble
6 | HHHHHHGSMTIKPLRKAVFPVAGLGTRFLPATKAMPKEMLPVVDRPLIQYAVDEAVEAGIEQMIFVTGRGKSALEDHFDIAYELEATMAARGKSLDVLDGTRLKPGNIAYVRQQEPMGLGHAVWCARDIVGDEPFAVLLPDDFMFGQPGCLKQMVDAYNKVGGNLICAEEVPDDQTHRYGIITPGTQDGVLTEVKGLVEKPAPGTAPSNLSVIGRYILQPEVMRILENQGKGAGGEIQLTDAMQRMIGDQPFHGVTFQGTRYDCGDKAGFIQANLAVALSRPDLEPAVRAFAVKALG | soluble
7 | MGSDKIHHHHHHMEIFGKTFREGRFVLKEKNFTVEFAVEKIHLGWKISGRVKGSPGRLEVLRTKAPEKVLVNNWQSWGPCRVVDAFSFKPPEIDPNWRYTASVVPDVLERNLQSDYFVAEEGKVYGFLSSKIAHPFFAVEDGELVAYLEYFDVEFDDFVPLEPLVVLEDPNTPLLLEKYAELVGMENNARVPKHTPTGWCSWYHYFLDLTWEETLKNLKLAKNFPFEVFQIDDAYEKDIGDWLVTRGDFPSVEEMAKVIAENGFIPGIWTAPFSVSETSDVFNEHPDWVVKENGEPKMAYRNWNKKIYALDLSKDEVLNWLFDLFSSLRKMGYRYFKIDFLFAGAVPGERKKNITPIQAFRKGIETIRKAVGEDSFILGCGSPLLPAVGCVDGMRIGPDTAPFWGEHIEDNGAPAARWALRNAITRYFMHDRFWLNDPDCLILREEKTDLTQKEKELYSYTCGVLDNMIIESDDLSLVRDHGKKVLKETLELLGGRPRVQNIMSEDLRYEIVSSGTLSGNVKIVVDLNSREYHLEKEGKSSLKKRVVKREDGRNFYFYEEGERE | soluble
8 | MSSEEDEIAELSKDTPPEKKRKISESGASSSSFIPESTSEESLSLKSKKSGSRKRILTASSSTNSIAMKSSASWIQEKDTPINKSDEEKSIAESLLIANFSNEQLDRYTAFKRSRFNRRIIKNVITRTTGQIPSDPLALAVAGLTKMFIGDLVEEAVELRGALNEQDRPVQPYHITRAFDKLLAEGKLWPPYGAKY | not soluble
9 | MGSDKIHHHHHHMCRWLAYTGNPLQLETVLFNARHSLIDQSLHSRLGYTTTNGDGFGIGWYGEPTDIPFRYRCIQPAWSDRNLREAARAIRAPLFVAHVRSATDTPSQETNCHPFRHGRWLFAHNGLIRNYPAVRRDLMVMIDPDLFPSIEGSTDSEVMFFLALTFGLELAPVTALERMVAFVEETGRKHGVDEPLNMTVCVTDGEQIVAVRYSSEGQSRSLFHSTSFHHLHELYPDDPRIAAAGENAFLVLSEPLADLPGWWEEIPESTVVVARGGQIEQYPFRPQSA | not soluble
10 | MGSDKIHHHHHHMSRAHVDHRDLVRFAEERVNLPKEKADEFRAQARRLREKLEGYLAEHPDFALKKMLLSGSLAKGTALRSLNDIDVAVYISGSDAPHDLQALLNYLAEKLRKAFPNFSPEQVQPQTYSVTVNFRGTGLNVDVVPVLYAGLPDWRGNLISQDDGSFLETSIPLHLECARKRKQAQPTHFAQVVRLIKYWARRMKQEHDGFRFKSFMIEMILAKLTDNGTDLSDYPEALQSFFTYVAESNLSERIVFEDYYQASTVAPSADRVQIIDPINASNNVARLYTAQNAAAIVDAALDAGDAIDAALKAPTKELTVHYWQKVFGSSFQG | not soluble
11 | MQEAIITSTVDLTSGGCNACGLVEDTVYTLAMNGVDIPLDGLTVAHLVSAIVARNGFKQELQMDMLDDEYILYRKEDTTVTFKEAYNHLSYDNGSEKIQSKNKLEDLPKLFEQVNQILTTVFGIGTVNFIIE | not soluble
12 | AQRRAVAAAGGLARSCPAGQQALLAEGFARRLLRDVAATLHEGEYTSPLCEPLAYADPLAGLAAALAELMAWPGLLAVLQPVQAQPDAVAAAAGAGAPAAAGAGVGAGSGARQRLAQETADRARAEVLVLLQELVTWLDPCCDDSRGVAPQDAAAVSLAAFRSLVEHDPGAAAALDADTNIRWYLCNLTGDDAPPAAPPAECVAPQSDMLLDLARRLLAALPPLAAAAAPG | not soluble
13 | MRIEVTIAKTSPLPAGAIDALAGELSRRIQYAFPDNEGHVSVRYAAANNLSVIGATKEDKQRISEILQETWESADDWFVSE | soluble
14 | MSLDAEKQLANITMGLPLSPAADSARSARHALSLIATARPPAFITTIAKEVHRHTALAANTQSQQSIHTTTLARAKGEILRVIEILIEKMPTDVVDLLVEVMDIIMYCLEGSLVKKKGLQECFPAICRFYMVSYYERSHRIAVGARHGSVALYDIRTGKCQTIHGHKGPITAVSFAPDGRYLATYSNTDSHISFWQMNTSLLGSIGMLNSAPQLRCIKTYQVPPVQPASPGSHNALKLARLIWTSNRNVILMAHDGKEHRFMVEGHHHHHH | not soluble
15 | MVHYKLTYFNARGLAEISRQLFHMAGVEFEDERINEEKFSQLKPTFPSGQVPILCIDGAQFSQSTAIARYLARKFGFVGQTAEEELQADEVVDTFKDFIESFRKFVIAVLSGESEEILKNIREEVIKPAVKTYTAYLKAILEKSSSGYLVGNELTWADLVIADNLTTLINAELLDIENDKLLKEFREKIIETPKLKEWLAKRPETRF | not soluble
16 | MVGHSESSTDAVIEPTSEELLAEQVRVFNKMKGSTNFNRVAEDVYPVEVTKSKLVCEMVVQHQHLNSKGTLHGGQTATLTDVITARAVGVTVKDKGMASVELAVSYLLPVKVGDVLEITAHVLKVGRTMAFTDCEFRRKSDGKMSAKGKHTLAFLPNQPGISVENGTQFLEHHHHHHS | soluble
17 | MSLEVLATFLYKFNGWSFLGRVLQNLSKNFDFTDREKVDTIVDIMSMLTKVVGEVSVEDSKHALTSMSAYTDDSDVLEVIFRLFEQSLHSRNIRMIESILNLLTQLVPIFSYRIWPAFSKSALLFDGTREGFATVIFGSIEMVNGDFRLTIALAKLTDALVYDCLTLDNAVPSKVKEAVLKKLVSHLIAVMESYAQEGHHHHHH | soluble
18 | MGSDKIHHHHHHMLLAVDHTTHYVFSGPVSHGLQRLRLAPKSTAGQRVVEWSMQFEGARLQAEYDDANNNRVSLISFDPGVSQVTIRCEGLVDTNDEAGIIGKHAGFMPMWQFLEQTDLTRAGARTRALLAALPHEDSTLVKLHALSALVRERVEYASGHTDVDTTAEGALAAGRGVCQDHAHIFIGAARALGIPARYACGYLMMDDRVEQDAGHAWAEAHVESLGWVGFDVSNGISPDARYIRVATGRDYRDAAPVTGIRYGAMDEAMHVRLAVQQQRVEQ | not soluble
19 | MGSDKIHHHHHHMAEHIITLVLSGERLDVTTSTPFVVALRDLLYEGDWELLKEDMKKKENIMKEVQTCEKLEKVVHLDETVYEPLIFPEFQEWLREENITPKDFKNVSLKGLYDLALEYADRNLYDIAHDIIKFMLDIDENYAPAYELKGSLLVEQGKIEEGIKFLDKAVEIDPWLVQAYASLGEAYYNLGDYEKAIHYWERELEYNPNDKITYFMITEAYYEMNRKDLAVKTLERLLEIDPDNIPALYQLSQLYRELGNEEKAREMEEKIMNCKPKYPTELEPWARVMLKHGRYKEVAEELEKIVESSPLNTLARLLLVVPYVKLGQIDKAREILDDIGQSNFWYYYGKKEILDELLTEEEKRACGIS | not soluble
20 | MASSASDGTHERSAFRLSPPVLSGAMGPFMHTGLYVAQSWRDYLGQQPDKLPIARPTIALAAQAFRDEIVLLGLKARRPVSNHRVFERISQEVAAGLEFYGNRRWLEKPSGFFAQPPPLTEVAVRKVKDRRRSFYRIFFDSGFTPHPGEPGSQRWLSYTANNREYALLLRHPEPRPWLVCVHGTEMGRAPLDLAVFRAWKLHDELGLNIVMPVLPMHGPRGQGLPKGAVFPGEDVLDDVHGTAQAVWDIRRLLSWIRSQEEESLIGLNGLSLGGYIASLVASLEEGLACAILGVPVADLIELLGRHCGLRHKDPRRHTVKMAEPIGRMISPLSLTPLVPMPGRFIYAGIADRLVHPREQVTRLWEHWGKPEIVWYPGGHTGFFQSRPVRRFVQAALEQSGLLDAPRTQRDRSA | not soluble
21 | MLERLKAITNLLKGALEQRSRAEEGYIREEKVKEAIELLEALERDIMEKELKLAKEALEKFDSNRKFYYLVGKLYVEVSKEEAQKLIEDELKMFGGEGK | not soluble
22 | MGSDKIHHHHHHRTKDQYYELRDFALGTSVRIVVSSQKINPRTIAEAILEDMKRITYKFSFTDERSVVKKINDHPNEWVEVDEETYSLIKAACAFAELTDGAFDPTVGRLLELWGFTGNYENLRVPSREEIEEALKHTGYKNVLFDDKNMRVMVKNGVKIDLGGIAKGYALDRARQIALSFDENATGFVEAGGDVRIIGPKFGKYPWVIGVKDPRGDDVIDYIYLKSGAVATSGDYERYFVVDGVRYHHILDPSTGYPARGVWSVTIIAEDATTADALSTAGFVMAGKDWRKVVLDFPNMGAHLLIVLEGGAIERSETFKLFERE | soluble
23 | MDPDNRVRQRAVKTLGKRGNPDVLEDLMEALKDSRQPVQEAASEALRKIIAASDSVPVLVKALDATDRNVRKAAIEALWKAGTPEAIPPLLRELDDADWYLRSRAADALADIASPEAALGLIKVMDIHDSPVKKIIVNALGKIGTVEAVEGLVKALEDLEHHHHHH | soluble
